{"source": "patent US20180022822A1", "about": "“NOVEL ANTI-FIBROBLAST ACTIVATION PROTEIN (FAP) BINDING AGENTS AND USES THEREOF” (Mabimmune Diagnostics AG, priority 2016, published 2018)", "molecules": {"B1": {"name": "NI-206.82C2: human-derived recombinant anti-FAP antibody; VH SEQ ID NO: 2 or 4 (PIMC), VL SEQ ID NO: 6 (antibody, V domains shown)", "VH": "QVQLQQSGPGLVKPSQTLSLTCAISGDSVSSNSVTWNWIRQSPSRGLEWLGRTYYRSKWYNDYAVSVKGRITINPDTSKNQFYLQLKSVTPEDAAVYYCARDSSILYGDYWGQGTLVTVSS", "VL": "QAVLTQPSSLSASPGASASLTCTLPSGINVGTYRIFWFQQKPGSPPQYLLSYKSDSDNHQGSGVPSRFSGSKDASANAGILLISGLQSEDEADYYCMIWHSSAWVFGGGTKLTVL"}}, "key": {"recombinant human FAP": {"molecular_target": "T1, recombinant human FAP (Homo sapiens, UniProt Q12884)", "T1 construct": "purchased Sino Biologicals 10464-H07H", "T1 sequence (Q12884 26-760 limits assumed)": "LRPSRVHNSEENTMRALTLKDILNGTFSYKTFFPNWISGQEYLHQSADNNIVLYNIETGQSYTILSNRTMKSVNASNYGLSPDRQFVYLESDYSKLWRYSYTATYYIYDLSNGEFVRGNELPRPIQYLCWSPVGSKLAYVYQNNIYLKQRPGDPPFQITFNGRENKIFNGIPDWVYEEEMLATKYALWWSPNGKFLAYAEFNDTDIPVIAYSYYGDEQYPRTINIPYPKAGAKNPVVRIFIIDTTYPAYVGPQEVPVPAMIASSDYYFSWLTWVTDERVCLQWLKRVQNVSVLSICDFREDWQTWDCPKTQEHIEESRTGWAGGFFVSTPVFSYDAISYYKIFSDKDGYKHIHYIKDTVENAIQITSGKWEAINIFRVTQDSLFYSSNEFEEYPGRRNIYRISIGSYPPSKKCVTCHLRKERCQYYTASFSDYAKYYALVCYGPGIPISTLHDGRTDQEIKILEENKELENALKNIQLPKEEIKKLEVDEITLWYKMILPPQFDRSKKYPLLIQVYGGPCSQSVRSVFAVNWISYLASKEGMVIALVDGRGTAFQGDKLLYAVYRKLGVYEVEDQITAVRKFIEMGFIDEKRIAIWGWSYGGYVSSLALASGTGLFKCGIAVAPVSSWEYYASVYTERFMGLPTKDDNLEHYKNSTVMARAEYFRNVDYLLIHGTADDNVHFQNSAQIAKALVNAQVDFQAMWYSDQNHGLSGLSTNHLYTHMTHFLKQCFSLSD", "assay": "mechanism of inhibition of rhuFAP-mediated PEP (Z-Gly-Pro-AMC) cleavage", "type": "biochemical", "settings": "0-1000 nM antibody, 20-100 μM Z-Gly-Pro-AMC; Lineweaver-Burk", "method": "A black flat bottom standard 96-well ELISA plate was blocked for 1 hr at 37° C. using sterile blocking buffer: 5% bovine serum albumin (BSA) in phosphate buffered saline (PBS). 10 μL of recombinant human FAP solution: 0.4 nM recombinant human FAP (Sino Biologicals, 10464-H07H), in 225 mM Sodium phosphate buffer, pH 7.4) was added to each well. Then, 80 μL of NI-206.82C2 at the indicated concentrations in PBS were added to the wells incubated for 1 hr at 37° C. Then, 10 μL of fluorogenic substrate solution (Z-Gly-Pro-AMC in 40% methanol and 60% 25 […]) was added to each well. The fluorescence intensity was measured at 360 nm excitation and 460 nm emission every 3 min over a total reading time of 2 hr."}, "[1]": {"test_system": "human blood plasma clotting", "assay": "rotational thromboelastometry (ROTEM, NATEM) of human blood plasma", "method": "Two batches of peripheral blood were taken from a single healthy subject in sodium citrate tubes and platelet-free blood plasma was prepared by centrifugation. Blood plasma from each tube was pooled and immediately aliquoted for storage at −80° C. The plasma has an FAP level of 130 ng/ml by ELISA. Plasma samples were treated with NI-206.82C2 (n=3) against FAP or 43A11 control (n=3) diluted in sterile saline and added to fresh fast thawed plasma such that the final concentration of antibody in the sample was 0.000667 nM, 0.00667 nM, 0.0667 nM, 0.667 nM 6.667 nM of plasma. Following 1 hr incubation with the antibody at 37° C., NATEM analysis was performed according to the manufacturer's instructions by using STAR-TEM reagent to observe the native blood clotting process after an incubation time with the antibodies of 1 h at 37° C. with the antibody before starting measurement. Statistical analysis was performed using a two-way ANOVA (*p<0.05, ** p<0.01, *** p<0.005, **** p<0.001)."}, "[2]": {"molecular_target": "T2, rhFAP and FAP homologues (DPP4, DPP8, DPP9, POP/PREP) (Homo sapiens, UniProt Q12884)", "T2 construct": "purchased Sino Biologicals 10464-H07H", "T2 sequence (Q12884 26-760 limits assumed)": "T1 sequence (Q12884 26-760 limits assumed)", "assay": "inhibition assays on SB9 oligopeptidase family enzymes", "type": "biochemical", "settings": "0-1000 nM antibody", "method": "To determine the inhibitory ability of the antibody a black 96 well plate was blocked for 1 h with blocking buffer. NI-206.82C2 was pipetted at concentrations of 1000, 50, 10, 3.03, 1.01, 0.031, 0.001, and 0 nM in PBS into the according wells. The enzymes were added at a concentration of 0.2 nM. Finally, fluorgenic substrates were then added to the well at a concentration equal to the Michaelis constant (Km) and the velocity of the substrate cleavage was quantified by fluorescence at 360 nm excitation and 460 nm emission. H-Gly-Pro-AMC (AAT Bioquest, 13450) was used for DPP4, DPP9, and DPP8. Z-Gly-Pro-AMC (BaChem, 11145) was used to evaluate the activity of POP/PREP. FAP activity was assessed using DQ-gelatin (Life Technologies, D12054) and cleavage quantified at 495 nm excitation and 515 nm emission."}, "[3]": {"settings": "increasing antibody concentrations"}}}
{"molecule": "B1", "values": [{"measurement": "type of inhibition of FAP-mediated PEP cleavage", "setting": "recombinant human FAP", "result": "non-competitive inhibitor"}, {"measurement": "clot formation time", "setting": "[1]; 0.000667-6.667 nM antibody", "result": "dose dependent prolongation"}, {"measurement": "clot rigidity", "setting": "[1]; [3]", "result": "reduces"}, {"measurement": "maximum clot elasticity", "setting": "[1]; [3]", "result": "decreases"}, {"measurement": "maximum clotting angle", "setting": "[1]; [3]", "result": "reduces"}, {"measurement": "inhibition selectivity for rhFAP over FAP homologues", "setting": "[2]", "result": "selectively inhibits rhFAP, but not FAP homologues"}]}
